According to doi:10.1101/330266 (bioRxiv, 2019):

Biological target: the molecule itself
Test: thioflavin T

Binding result, binds:
Ac-DNIKHVSGGGSVQIVYK-NH2 [R2R3-P301S peptide fragment]
Ac-VQIVYK-NH2 [306VQIVYK311 hexapeptide]
Ac-DNIKHVPGGGNVQIVYK-NH2 [R2R3-S305N peptide fragment]
Ac-DNIKHIPGGGSVQIVYK-NH2 [R2R3-V300I peptide fragment]
Ac-DNIKHVPGVGSVQIVYK-NH2 [R2R3-G303V peptide fragment]
Ac-DNIKHVLGGGSVQIVYK-NH2 [R2R3-P301L peptide fragment]
